The text below walks through data of patent US20190185537A1 (AstraZeneca / MedImmune, published 2019).

Read-outs that look alike come from different tables or passages of the source. Numbered stars: 1 amine (or outer) side, 2 acyl side, 3 side chain; on linkers, the order of the positions; unused ones are H or OH. Side chains are listed from the residue outwards. Ends that are not written are not given here. * marks the point of attachment. γGlu = O=C(O)[C@H](CCC(=O)[*:2])N[*:1]; Palmitoyl = CCCCCCCCCCCCCCCC(=O)*

Common to all, as to assay: cell-based or functional assay
Experiment [1] concerns the target T1, human glucagon receptor (human, UniProt P47871 26-477).
For experiment [2], the target named is T2, human GLP-1 receptor (human, UniProt P43220 24-463).
Target sequence in this assay (P43220 24-463): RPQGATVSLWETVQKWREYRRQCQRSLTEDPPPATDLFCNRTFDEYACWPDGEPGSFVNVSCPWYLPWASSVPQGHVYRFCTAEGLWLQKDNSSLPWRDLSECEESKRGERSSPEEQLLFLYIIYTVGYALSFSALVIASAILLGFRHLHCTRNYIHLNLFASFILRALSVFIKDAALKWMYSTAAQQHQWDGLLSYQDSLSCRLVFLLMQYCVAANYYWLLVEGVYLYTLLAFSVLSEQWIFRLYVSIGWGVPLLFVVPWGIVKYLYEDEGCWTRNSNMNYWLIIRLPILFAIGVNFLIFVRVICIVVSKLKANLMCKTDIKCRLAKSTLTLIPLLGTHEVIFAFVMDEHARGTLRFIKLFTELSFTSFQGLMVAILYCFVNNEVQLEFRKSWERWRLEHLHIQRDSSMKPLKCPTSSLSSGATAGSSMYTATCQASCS
For experiment [3], the target named is T3, human glucose-dependent insulinotropic peptide (gastric inhibitory polypeptide) receptor (human) (UniProt P48546).
T3 sequence (looked up): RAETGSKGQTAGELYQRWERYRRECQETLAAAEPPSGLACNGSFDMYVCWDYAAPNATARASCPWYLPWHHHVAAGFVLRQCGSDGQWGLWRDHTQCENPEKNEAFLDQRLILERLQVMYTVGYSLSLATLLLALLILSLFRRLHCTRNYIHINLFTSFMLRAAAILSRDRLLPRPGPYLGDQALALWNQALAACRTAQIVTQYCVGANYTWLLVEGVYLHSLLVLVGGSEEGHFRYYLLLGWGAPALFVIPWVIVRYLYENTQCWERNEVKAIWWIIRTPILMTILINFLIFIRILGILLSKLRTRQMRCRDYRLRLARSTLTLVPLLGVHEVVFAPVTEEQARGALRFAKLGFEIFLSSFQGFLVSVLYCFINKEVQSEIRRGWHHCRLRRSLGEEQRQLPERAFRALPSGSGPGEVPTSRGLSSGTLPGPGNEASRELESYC

Experiment [4] addresses T4, human glucose-dependent insulinotropic peptide (gastric inhibitory polypeptide) receptor (human, UniProt P48546 22-466).
T4 sequence (looked up): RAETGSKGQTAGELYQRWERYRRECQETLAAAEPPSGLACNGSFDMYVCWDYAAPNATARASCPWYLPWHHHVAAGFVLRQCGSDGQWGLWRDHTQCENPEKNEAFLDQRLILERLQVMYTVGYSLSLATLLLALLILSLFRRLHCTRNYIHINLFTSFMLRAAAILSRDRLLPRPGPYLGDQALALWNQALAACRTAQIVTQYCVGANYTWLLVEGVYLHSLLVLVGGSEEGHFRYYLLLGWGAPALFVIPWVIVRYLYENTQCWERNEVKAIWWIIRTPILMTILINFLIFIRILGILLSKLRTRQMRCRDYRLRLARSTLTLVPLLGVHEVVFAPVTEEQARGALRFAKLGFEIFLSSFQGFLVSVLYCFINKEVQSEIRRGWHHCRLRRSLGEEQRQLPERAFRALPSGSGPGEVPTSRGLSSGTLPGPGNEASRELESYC

Experiment [5] addresses T1, human glucagon receptor. This is another data set of the same source.
In experiment [6] the target is T2, human GLP-1 receptor. The source holds these as a separate data set.
The target in experiment [7] is mouse glucagon receptor (mouse, UniProt Q61606 27-485).
The target of experiment [8] is rat glucagon receptor (rat, UniProt P30082 27-485).
In experiment [9] the target is T5, mouse GLP-1 receptor (mouse, UniProt O35659 22-463).
T5 sequence (looked up): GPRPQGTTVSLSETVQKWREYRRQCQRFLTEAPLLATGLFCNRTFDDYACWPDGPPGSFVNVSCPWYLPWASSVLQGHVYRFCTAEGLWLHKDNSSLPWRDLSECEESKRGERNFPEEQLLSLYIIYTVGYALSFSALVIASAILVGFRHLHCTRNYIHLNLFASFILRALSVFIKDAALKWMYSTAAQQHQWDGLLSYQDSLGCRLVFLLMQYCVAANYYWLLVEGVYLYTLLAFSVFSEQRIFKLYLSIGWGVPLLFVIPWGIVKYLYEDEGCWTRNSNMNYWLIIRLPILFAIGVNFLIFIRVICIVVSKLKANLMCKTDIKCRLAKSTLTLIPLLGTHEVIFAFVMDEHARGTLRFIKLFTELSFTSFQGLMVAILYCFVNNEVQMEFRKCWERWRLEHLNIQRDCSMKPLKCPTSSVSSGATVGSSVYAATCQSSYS

The target of experiment [10] is T2, human GLP-1 receptor. This is another data set of the same source.

T1 sequence (P47871 26-477): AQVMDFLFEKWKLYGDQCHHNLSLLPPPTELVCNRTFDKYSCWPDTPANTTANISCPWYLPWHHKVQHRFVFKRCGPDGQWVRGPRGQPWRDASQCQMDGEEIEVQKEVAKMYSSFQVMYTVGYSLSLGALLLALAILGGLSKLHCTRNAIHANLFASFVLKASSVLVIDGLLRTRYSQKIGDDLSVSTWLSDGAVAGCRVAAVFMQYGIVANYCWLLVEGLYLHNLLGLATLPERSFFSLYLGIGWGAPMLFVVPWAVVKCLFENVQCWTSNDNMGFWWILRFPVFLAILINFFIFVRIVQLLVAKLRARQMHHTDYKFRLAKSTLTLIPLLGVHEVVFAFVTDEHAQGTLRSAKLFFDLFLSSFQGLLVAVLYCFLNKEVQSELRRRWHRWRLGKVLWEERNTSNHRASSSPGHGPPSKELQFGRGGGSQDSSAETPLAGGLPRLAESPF
rat glucagon receptor, sequence (P30082 27-485): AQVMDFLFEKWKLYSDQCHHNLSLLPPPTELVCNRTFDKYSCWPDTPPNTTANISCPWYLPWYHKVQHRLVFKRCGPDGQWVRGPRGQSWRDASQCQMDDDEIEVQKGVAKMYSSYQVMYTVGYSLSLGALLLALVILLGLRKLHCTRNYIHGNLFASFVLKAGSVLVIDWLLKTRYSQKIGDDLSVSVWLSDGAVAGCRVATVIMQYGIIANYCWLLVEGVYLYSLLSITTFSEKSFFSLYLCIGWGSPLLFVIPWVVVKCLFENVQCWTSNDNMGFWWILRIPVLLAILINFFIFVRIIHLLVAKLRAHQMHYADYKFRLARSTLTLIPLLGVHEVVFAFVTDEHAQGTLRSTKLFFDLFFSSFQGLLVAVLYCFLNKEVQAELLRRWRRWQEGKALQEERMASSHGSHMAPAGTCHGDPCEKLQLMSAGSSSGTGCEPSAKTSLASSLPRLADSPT
mouse glucagon receptor, sequence (Q61606 27-485): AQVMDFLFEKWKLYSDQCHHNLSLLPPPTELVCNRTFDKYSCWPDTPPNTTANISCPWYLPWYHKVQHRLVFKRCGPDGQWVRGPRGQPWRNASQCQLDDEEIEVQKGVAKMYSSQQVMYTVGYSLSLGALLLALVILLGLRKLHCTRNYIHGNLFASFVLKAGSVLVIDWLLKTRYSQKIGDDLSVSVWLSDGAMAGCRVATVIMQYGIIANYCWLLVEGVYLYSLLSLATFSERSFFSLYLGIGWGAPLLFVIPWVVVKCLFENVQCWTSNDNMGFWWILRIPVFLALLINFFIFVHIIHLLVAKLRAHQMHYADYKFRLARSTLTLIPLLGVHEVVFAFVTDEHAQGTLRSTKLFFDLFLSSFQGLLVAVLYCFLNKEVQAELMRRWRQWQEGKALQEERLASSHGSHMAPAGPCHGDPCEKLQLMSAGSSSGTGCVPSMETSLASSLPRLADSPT

B1: g733 (peptide)
peptide: HGEGTFTSDYSKYK([γGlu-Palmitoyl])DSRRAQDFVQWLVAGG-NH2
modifications: N-terminus assumed
SMILES: CCCCCCCCCCCCCCCC(=O)N[C@@H](CCC(=O)NCCCC[C@H](NC(=O)[C@H](Cc1ccc(O)cc1)NC(=O)[C@H](CCCCN)NC(=O)[C@H](CO)NC(=O)[C@H](Cc1ccc(O)cc1)NC(=O)[C@H](CC(=O)O)NC(=O)[C@H](CO)NC(=O)[C@@H](NC(=O)[C@H](Cc1ccccc1)NC(=O)[C@@H](NC(=O)CNC(=O)[C@H](CCC(=O)O)NC(=O)CNC(=O)[C@@H](N)Cc1c[nH]cn1)[C@@H](C)O)[C@@H](C)O)C(=O)N[C@@H](CC(=O)O)C(=O)N[C@@H](CO)C(=O)N[C@@H](CCCNC(=N)N)C(=O)N[C@@H](CCCNC(=N)N)C(=O)N[C@@H](C)C(=O)N[C@@H](CCC(N)=O)C(=O)N[C@@H](CC(=O)O)C(=O)N[C@@H](Cc1ccccc1)C(=O)N[C@H](C(=O)N[C@@H](CCC(N)=O)C(=O)N[C@@H](Cc1c[nH]c2ccccc12)C(=O)N[C@@H](CC(C)C)C(=O)N[C@H](C(=O)N[C@@H](C)C(=O)NCC(=O)NCC(N)=O)C(C)C)C(C)C)C(=O)O
Consider B1, for which the cAMP EC50 (assay 1) turned out to be 62 nM in [1], 0.0231 nM in experiment [2] and 817 nM in [3].

B2: g777 (peptide)
peptide: HSQGTFTSDYSKYK([γGlu-Palmitoyl])DSERARDFVAWLVAGG-NH2
modifications: N-terminus assumed
SMILES: CCCCCCCCCCCCCCCC(=O)N[C@@H](CCC(=O)NCCCC[C@H](NC(=O)[C@H](Cc1ccc(O)cc1)NC(=O)[C@H](CCCCN)NC(=O)[C@H](CO)NC(=O)[C@H](Cc1ccc(O)cc1)NC(=O)[C@H](CC(=O)O)NC(=O)[C@H](CO)NC(=O)[C@@H](NC(=O)[C@H](Cc1ccccc1)NC(=O)[C@@H](NC(=O)CNC(=O)[C@H](CCC(N)=O)NC(=O)[C@H](CO)NC(=O)[C@@H](N)Cc1c[nH]cn1)[C@@H](C)O)[C@@H](C)O)C(=O)N[C@@H](CC(=O)O)C(=O)N[C@@H](CO)C(=O)N[C@@H](CCC(=O)O)C(=O)N[C@@H](CCCNC(=N)N)C(=O)N[C@@H](C)C(=O)N[C@@H](CCCNC(=N)N)C(=O)N[C@@H](CC(=O)O)C(=O)N[C@@H](Cc1ccccc1)C(=O)N[C@H](C(=O)N[C@@H](C)C(=O)N[C@@H](Cc1c[nH]c2ccccc12)C(=O)N[C@@H](CC(C)C)C(=O)N[C@H](C(=O)N[C@@H](C)C(=O)NCC(=O)NCC(N)=O)C(C)C)C(C)C)C(=O)O
With B2, the cAMP EC50 (assay 1) was 0.00124 nM in experiment [1], 0.0274 nM in [2] and 4.53 nM in [3].

B3: G865 (peptide)
peptide: HSQGTFTSDKSSYLDSRSARDFVAWLEAGG
modifications: X10 = K(gE-palm); C-terminal amide
For B3, the “cAMP EC50 (assay 1)” value was determined as 22 nM in experiment [4], 0.0126 nM in experiment [5] and 0.0083 nM in experiment [6]. Also, the “cAMP EC50 (assay 2, 3.2% mouse serum albumin)” value turned out to be 1.1 nM in [7] and 0.096 nM in experiment [9]. In addition, the “cAMP EC50 (assay 2, 3.2% rat serum albumin)” value in [8] worked out at 87.1 nM. Besides, the “cAMP EC50 (assay 2, 4.4% human serum albumin)” value in [10] turned out to be 0.15 nM.

B4: g732 (peptide)
peptide: HGQGTFTSDYSKYK([γGlu-Palmitoyl])DSERARDFVAWLVAGG-NH2
modifications: N-terminus assumed
SMILES: CCCCCCCCCCCCCCCC(=O)N[C@@H](CCC(=O)NCCCC[C@H](NC(=O)[C@H](Cc1ccc(O)cc1)NC(=O)[C@H](CCCCN)NC(=O)[C@H](CO)NC(=O)[C@H](Cc1ccc(O)cc1)NC(=O)[C@H](CC(=O)O)NC(=O)[C@H](CO)NC(=O)[C@@H](NC(=O)[C@H](Cc1ccccc1)NC(=O)[C@@H](NC(=O)CNC(=O)[C@H](CCC(N)=O)NC(=O)CNC(=O)[C@@H](N)Cc1c[nH]cn1)[C@@H](C)O)[C@@H](C)O)C(=O)N[C@@H](CC(=O)O)C(=O)N[C@@H](CO)C(=O)N[C@@H](CCC(=O)O)C(=O)N[C@@H](CCCNC(=N)N)C(=O)N[C@@H](C)C(=O)N[C@@H](CCCNC(=N)N)C(=O)N[C@@H](CC(=O)O)C(=O)N[C@@H](Cc1ccccc1)C(=O)N[C@H](C(=O)N[C@@H](C)C(=O)N[C@@H](Cc1c[nH]c2ccccc12)C(=O)N[C@@H](CC(C)C)C(=O)N[C@H](C(=O)N[C@@H](C)C(=O)NCC(=O)NCC(N)=O)C(C)C)C(C)C)C(=O)O
With B4, the cAMP EC50 (assay 1) came out at 0.0396 nM in [1], 0.0232 nM in [2] and 29.4 nM in [3].

B5: g731 (peptide)
peptide: HSQGTFTSDYSEYK([γGlu-Palmitoyl])DSRRAQDFVQWLVAGG-NH2
modifications: N-terminus assumed
SMILES: CCCCCCCCCCCCCCCC(=O)N[C@@H](CCC(=O)NCCCC[C@H](NC(=O)[C@H](Cc1ccc(O)cc1)NC(=O)[C@H](CCC(=O)O)NC(=O)[C@H](CO)NC(=O)[C@H](Cc1ccc(O)cc1)NC(=O)[C@H](CC(=O)O)NC(=O)[C@H](CO)NC(=O)[C@@H](NC(=O)[C@H](Cc1ccccc1)NC(=O)[C@@H](NC(=O)CNC(=O)[C@H](CCC(N)=O)NC(=O)[C@H](CO)NC(=O)[C@@H](N)Cc1c[nH]cn1)[C@@H](C)O)[C@@H](C)O)C(=O)N[C@@H](CC(=O)O)C(=O)N[C@@H](CO)C(=O)N[C@@H](CCCNC(=N)N)C(=O)N[C@@H](CCCNC(=N)N)C(=O)N[C@@H](C)C(=O)N[C@@H](CCC(N)=O)C(=O)N[C@@H](CC(=O)O)C(=O)N[C@@H](Cc1ccccc1)C(=O)N[C@H](C(=O)N[C@@H](CCC(N)=O)C(=O)N[C@@H](Cc1c[nH]c2ccccc12)C(=O)N[C@@H](CC(C)C)C(=O)N[C@H](C(=O)N[C@@H](C)C(=O)NCC(=O)NCC(N)=O)C(C)C)C(C)C)C(=O)O
Regarding B5, the cAMP EC50 (assay 1) in [1] was 0.0277 nM; in experiment [2], 0.0422 nM; in [3] it was 40.7 nM.

B6: g846 (peptide)
peptide: HSQGTFTSDYSEYK([γGlu-Palmitoyl])DSERARDFVAWLVAGG-NH2
modifications: N-terminus assumed
SMILES: CCCCCCCCCCCCCCCC(=O)N[C@@H](CCC(=O)NCCCC[C@H](NC(=O)[C@H](Cc1ccc(O)cc1)NC(=O)[C@H](CCC(=O)O)NC(=O)[C@H](CO)NC(=O)[C@H](Cc1ccc(O)cc1)NC(=O)[C@H](CC(=O)O)NC(=O)[C@H](CO)NC(=O)[C@@H](NC(=O)[C@H](Cc1ccccc1)NC(=O)[C@@H](NC(=O)CNC(=O)[C@H](CCC(N)=O)NC(=O)[C@H](CO)NC(=O)[C@@H](N)Cc1c[nH]cn1)[C@@H](C)O)[C@@H](C)O)C(=O)N[C@@H](CC(=O)O)C(=O)N[C@@H](CO)C(=O)N[C@@H](CCC(=O)O)C(=O)N[C@@H](CCCNC(=N)N)C(=O)N[C@@H](C)C(=O)N[C@@H](CCCNC(=N)N)C(=O)N[C@@H](CC(=O)O)C(=O)N[C@@H](Cc1ccccc1)C(=O)N[C@H](C(=O)N[C@@H](C)C(=O)N[C@@H](Cc1c[nH]c2ccccc12)C(=O)N[C@@H](CC(C)C)C(=O)N[C@H](C(=O)N[C@@H](C)C(=O)NCC(=O)NCC(N)=O)C(C)C)C(C)C)C(=O)O
In the case of B6, the results for the cAMP EC50 (assay 1) in [1], in [2] and in experiment [3] were 0.0341 nM, 0.0438 nM and 11.8 nM, respectively.

B7: g803 (peptide)
peptide: HSQGTFTSDYSKYK([γGlu-Palmitoyl])DSRSARDFVEWLVAGG-NH2
modifications: N-terminus assumed
SMILES: CCCCCCCCCCCCCCCC(=O)N[C@@H](CCC(=O)NCCCC[C@H](NC(=O)[C@H](Cc1ccc(O)cc1)NC(=O)[C@H](CCCCN)NC(=O)[C@H](CO)NC(=O)[C@H](Cc1ccc(O)cc1)NC(=O)[C@H](CC(=O)O)NC(=O)[C@H](CO)NC(=O)[C@@H](NC(=O)[C@H](Cc1ccccc1)NC(=O)[C@@H](NC(=O)CNC(=O)[C@H](CCC(N)=O)NC(=O)[C@H](CO)NC(=O)[C@@H](N)Cc1c[nH]cn1)[C@@H](C)O)[C@@H](C)O)C(=O)N[C@@H](CC(=O)O)C(=O)N[C@@H](CO)C(=O)N[C@@H](CCCNC(=N)N)C(=O)N[C@@H](CO)C(=O)N[C@@H](C)C(=O)N[C@@H](CCCNC(=N)N)C(=O)N[C@@H](CC(=O)O)C(=O)N[C@@H](Cc1ccccc1)C(=O)N[C@H](C(=O)N[C@@H](CCC(=O)O)C(=O)N[C@@H](Cc1c[nH]c2ccccc12)C(=O)N[C@@H](CC(C)C)C(=O)N[C@H](C(=O)N[C@@H](C)C(=O)NCC(=O)NCC(N)=O)C(C)C)C(C)C)C(=O)O
On to B7, for which the cAMP EC50 (assay 1) came out at 0.0108 nM in experiment [1], 0.0296 nM in experiment [2] and 32.9 nM in [3].
